# According to the RNAGym collection of RNA variant scans (doi:10.1073/pnas.2313332121):
# Fewer inactive variants are shown than the library holds.
# B1: TPR 5TU (parent)
# chain: GGAUCUUCUCGAUCUAACAAAAAAGACAAAUCUGCCACAAAGCUUGAGAGCAUCUUCGGAUGCAGAGGCGGCAGCCUUCGGUGGCGCGAUAGCGCCAACGUUCUCAACUAUGACACGCAAAACGCGUGCUCCGUUGAAUGGAGUUUAUCAUG
# Variants of: B1
# Assay: polymerase ribozyme fitness, log enrichment relative to wild type (log ratio); higher = more active; in vitro selection for triplet polymerase activity
# In short: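 Mutant libraries for each subunit of a heterodimeric triplet polymerase ribozyme were made by PCR and then transcribed. Each library underwent one round of in vitro selection in triplicate: annealing with a biotinylated primer, the partner subunit and triplets, frozen incubation at −7 °C, gel excision of extended constructs, streptavidin-bead capture and RT-PCR. Input and output libraries were Illumina-sequenced, and only genotypes with ≥10 input reads and ≥1 read per output were kept. Fitness is the logarithm, base 2, of genotype enrichment over wild-type enrichment, computed from inverse-variance-weighted replicate averages.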
row,Variant,polymerase ribozyme fitness (log ratio)
1,U13C C18A A40C U53A G83A,-2.56
2,U13C C125A G136C U145C U146C,-3.59
3,U13C A19C A89U C95U U146G A150U,-2.94
4,U13G C75A C108G G143A,≤ -4.2
5,A12U A110G,-3.35
6,A12G U56A C76A G143U,-3.46
7,U13A A26U C76U U146A,-3.35
8,A12U A28U U55G A66C G74C G80C C85A C87U C96U,≤ -4.2
9,A12U G46C C69U,-3.08
10,A12G U55A,0.668
11,A12G U55G,-2
12,U13C A120G U130A,-3.95
13,A12U G58U G83A C93A,≤ -4.2
14,A12U C14A A24U U56A C85U C99U G141A,≤ -4.2
15,U13A A20G A28G G48A U146C,≤ -4.2
16,A12U C35U A91G,-3.67
17,A12U A19C C95U C105A,-1.03
18,U13C U53G C87A A120U A142U U146A,≤ -4.2
19,A12U C85A U139G,-0.992
20,A12U G141C,-0.54
21,U13C U44A U55A G59U G84A A150C,≤ -4.2
22,U13G C38U C63U C76U A91G C93G C95U C149U,≤ -4.2
23,U13C C14G A66G A73G C95U A110G,≤ -4.2
24,A12U U144G,0.918

row,Variant,polymerase ribozyme fitness (log ratio)
1,A12U G92A,-1.81
2,A12U G92U,-1.64
3,A12U C54U U134A U145G,-3.56
4,U13G A29U C93U C129G,≤ -4.2
5,U13G A19G G25C C79A C131G U145G,≤ -4.2
6,A12U G143U,-3.14
7,U13G C85U C96U G100A A115C,≤ -4.2
8,A12U A19G U82C G83A A119U,-4.07
9,U13A C27A C54A U56A G65C G92C A97G U101G G140U,≤ -4.2
10,A12U A49C U53A C85U C118G U151G,≤ -4.2
11,U13A A30G A37C G68U,≤ -4.2
12,A12G U45A A52U U55A C79G G81A A98G,≤ -4.2
13,U13G A26U C32G U33A C54G A66U C118A U144A,≤ -4.2
14,A12U G67U G84A A110U,≤ -4.2
15,U13A A91G C114U A120G,-4.09
16,U13A C38U,-0.321
17,A12G U77A C96A A98G,≤ -4.2
18,U13G A26U C96G A120G,≤ -4.2
19,U13A U135A,-0.229
20,U13C A21C A23C G92U A142G A147U,≤ -4.2
21,A12U C54A C95U,-1.84
22,U13C A30U C36G C51U U55A C87A G126U,≤ -4.2
23,U13G A17G C96A G143C,-4.19
24,U13C U78G C85A C116U,≤ -4.2

row,Variant,polymerase ribozyme fitness (log ratio)
1,A12G U56A A60U G65U A91U C96G A120U,≤ -4.2
2,A12U A19C U44G U148C,≤ -4.2
3,A12U C116G,-0.634
4,U13A C38U G83C G140A,≤ -4.2
5,U13C C93A,-2.64
6,U13A C93A,-3.28
7,U13G C57A,-0.243
8,U13C U104G,-1.57
9,U13A C69A A120C,-2.74
10,A12G U55A G71A G80C,≤ -4.2
11,U13A A29U U44A C72G C96U A97U,≤ -4.2
12,U13G C85U,-1.63
13,U13G C85A,-2.23
14,U13A C85U U135A,-1.44
15,U13G A28U A64C G68A C79U,≤ -4.2
16,A12U C87U A119U,-1.23
17,U13C A91U A120U,-3.86
18,A12U A28U A41U U53G U56G G84A A91G C93G G140U,≤ -4.2
19,A12G U78C U139G,-1.31
20,A12G U53G G59A C95G A98C U146A,-1.26
21,A12U A20U C54U A73G A91U C99U U146G,≤ -4.2
22,A12G U45A A52U C93A C118A A120U U145G,≤ -4.2
23,A12U A20U A21C C87G A142G,≤ -4.2
24,U13G C54G,-3.62

row,Variant,polymerase ribozyme fitness (log ratio)
1,U13C C93U U134A,-3.08
2,U13C C27U A37G C54U A106G U109G C123G G124A,-3.57
3,U13C G58A G88U U90A U102G,≤ -4.2
4,A12U C27A A52C G71C C105U,≤ -4.2
5,U13A A19U A37C U45A A49C C51U C76U G94A G133U U134A G140U U148A,≤ -4.2
6,U13C G83C C96U C114U,-4.13
7,A12U C85A C96A,-2.97
8,A12U G50U C72U G126A,-1.33
9,A12U G59A C75G U127G,-4.12
10,A12U A23G C87U,-3.67
11,U13C C35G C36G U55G G86U,-4.16
12,U13C G94A G141U,0.369
13,U13A A21C A73G C85G A89U,-2.11
14,U13G C38A C93G C116G A122G,≤ -4.2
15,U13A C76A U148G,≤ -4.2
16,A12U C35G G46A C57G A60C G92U C108G G143A A147G,≤ -4.2
17,A12U U53A U56A A66C A113C,≤ -4.2
18,U13A G62A A142G,-2.22
19,U13G C14G U31G,-1.43
20,U13G C35A G50A C54A C76G C87G A89U A107C G141C,≤ -4.2
21,U13C G58U G94U C95U A142G U144G,-4.05
22,U13C C35A A91U C95A U104C C131G,≤ -4.2
23,A12U C35G A60C U61A C76A G124U,≤ -4.2
24,A12U A39U A150C,≤ -4.2

row,Variant,polymerase ribozyme fitness (log ratio)
1,U13A U55A A89C G128U,-3.92
2,U13A A52U A73G C85A U134G,≤ -4.2
3,A12U C93U,-1.13
4,A12U C93A,-1.26
5,U13A C105A A107C U134A,≤ -4.2
6,U13G A20U C57A C95A C96A U130C,≤ -4.2
7,A12U U56A,-0.683
8,A12U A16U C51A G94A U109C A113G C116A U144A,≤ -4.2
9,A12U G42A C85U C99G,≤ -4.2
10,U13A A20U U77A,≤ -4.2
11,A12U C18G G92C,-2.01
12,U13C C69A C87G A97U A147U,≤ -4.2
13,U13G A49U,-2.21
14,U13G C85U C99U G128C C132U,≤ -4.2
15,U13G C87U,-1.62
16,A12U G50A C85A G88A A121G,≤ -4.2
17,A12U C14U A21U A49G C75G C116U A121C U146G U151G,≤ -4.2
18,U13G C18G U45A G59U U104G U134C G140U U144A,≤ -4.2
19,A12U A28C C57U G68A G92C G126U,≤ -4.2
20,A12U U61G C93U G94A U144G,-2.83
21,A12U C38G G50A A66C,≤ -4.2
22,A12G U45G A49U A60G U61G A107U U127G,≤ -4.2
23,A12U C51U,-2.53
24,A12U C57G G65A,-3.18

row,Variant,polymerase ribozyme fitness (log ratio)
1,A12U U15C U56A G92A A150G,-1.16
2,U13C A39C U56A C95U G124A,-3.63
3,U13A C18U U55A A119G,-1.83
4,U13A G58A C87U C105A C108U G124A U145A,≤ -4.2
5,U13G A16U C85U U145G,-3.16
6,A12U U56A C93U A147G,-1.6
7,A12U A24C C63G C85U C87A G94C A107G G126A A137G G141U,≤ -4.2
8,A12U U56G A89G C93A A113G,-3.89
9,U13C A20C G50C,-3.15
10,U13A U61A C85U,-2.01
11,U13C A49C A52U G71A A113U,≤ -4.2
12,A12U G42C U61A A106U C132U,≤ -4.2
13,A12G U31G C118A A120G G141C,-2.6
14,A12U A19U C35A U61G C69U U78G G80C A97C G126U,≤ -4.2
15,A12U C87A U90C A113G C131U,≤ -4.2
16,U13G A17U A21G A22G G50C G59A G70C C72U C125G,≤ -4.2
17,U13G A21U C32G A73U U78A C87A C118A,≤ -4.2
18,U13G A40U C96G A121G,-2.57
19,U13A C36A G50A C79U C96A,≤ -4.2
20,A12U A97U,-0.954
21,A12U G80U G84C A97G U134C,≤ -4.2
22,U13A C14G A19U U53A U55A G86C U135A,≤ -4.2
23,A12U C14A C85G U145C,-3.7
24,A12U C105G,-2.43

row,Variant,polymerase ribozyme fitness (log ratio)
1,A12U U82G,-1.49
2,U13A C57U A73C C96G,≤ -4.2
3,U13A G84A G136U,-2.59
4,U13C A26C A52C,-3.55
5,U13C C14U C54A G92A,≤ -4.2
6,A12U A16C C57G G81A U104G A115G,≤ -4.2
7,U13C G94A,-0.431
8,U13C G94C,-0.0586
9,U13C A19G U45G C93A A106U,-2.34
10,A12U A28U U102A U139G U148G,-4.1
11,U13A C14A A60G C93U,-2.5
12,A12U G86A U101G,-0.714
13,A12U A17U A28C C43G C103G,≤ -4.2
14,U13C U56G A115G,-2.32
15,A12G U151G,-4.06
16,U13G C35A A52C,≤ -4.2
17,A12U G59U C69A C96U,-2.45
18,A12U C18A C36U C57A C95U A97G A98U C125U,-3.95
19,U13A G48U U56A G84A,-1.28
20,A12U G25C A47G U56A C93G C108G,≤ -4.2
21,U13C U45G G81A C85U C118U G126A,≤ -4.2
22,U13C A22U A24U U53A A98U,-1.6
23,U13G A24C C35A A49U C76G A91C,≤ -4.2
